Laboratory results from patent publication US20230220053A1 (published 2023).
Residue numbers refer to the chain shown, from its start.

B1: 2020EP54-H01 scFv (scFv)
scFv: QVQLVESGGGVVQPGRSLRLSCAASGFTFSSYGMHWVRQAPGKGLEWVAVISYDGSNKYYADSVKGRFTISRDNSKNTLYLQMNSLRAEDTAVYYCAKGRGWYLDYWGQGTLVTVSSGGGGSGGGGSGGGGSNFMLTQPPSVSVSPGQTASITCSGDKLGDKYACWYQQKPGQSPVLVMYEDYKRPSGIPARFSGSNSGNTATLTISRVEGGDEGDYYCQVWDSRGPEVIFGGGTKLTVL
notes: also called 2020EP054-H01
B2: 2020EP53-D06 scFv (scFv)
scFv: QVQLVQSGGGVVQPGRSLRLSCAASGFTFSSYAMHWVRQAPGKGLEWVAVISYDGSNKYYADSVKGRFTISRDNSKNTLYLQMNSLRAEDTAVYYCARDGEDGYNYISPFDYWGQGTLVTVSSGGGGSGGGGSGGGGSSYELTQPPSVSVAPGETARITCRGNDIGSKSVHWYQQKPGQAPVLVLYYDSDRPSGIPERFSGSNSGNTATLTISSVEAGDEADYYCQVWDIDVVFGGGTKLTVL
B3: 2020EP60-F05 scFv (scFv)
scFv: QVQLVESGGGVVQPGGSLRLSCAASGFTFSSYGMHWVRQAPGKGLEWVAVISYDGSNKYYADSVKGRFTISRDNSKNTLYLQMNSLRAEDTAVYYCAKARVALGYFDWLLYDGMDVWGQGTTVTVSSGGGGSGGGGSGGGGSSSELTQPPSVSVSPGQTASITCSGDKLGNKYVFWYQQKPGQSPILVIYQDNRRPSGIPERFSGSNSGNTATLTISGDPAMDEADYYCQAWDSSTVVFGGGTKLTVL
B4: 2020EP54-B02 scFv (scFv)
scFv: QVQLVQSGAEVKKPGASVKVSCKASGYTFIGYYMHWMRQAPGQGLEWMGRINPNSGGTNYAEKFQGRVTMTRDTSISTAYMELSRLTFNDTAVYYCARWDSSSWKFDSWGQGTLVTVSSGGGGSGGGGSGGGGSEIVLTQSPSSLSASVGDRVTITCQASQDISNYLNWYQQKPGKAPKLLIYDASNLETGVPSRFSGSGSGTDFTFTISSLQPEDIATYYCQQYDNLPITFGQGTRLEIK
B5: 2020EP61-A08 scFv (scFv)
scFv: QVQLVQSGAEVKKPGASVKVSCKASGYTFTSYYMHWVRQAPGQGLEWMGIINPSGGSTSYAQKFQGRVTMTRDTSTSTVYMELSSLRSEDTAVYYCARESGNYYYDSSGYTFDYWGQGTLVTVSSGGGGSGGGGSGGGGSSYVLTQPLSVSVALGQTARITCGGNNIGSKNVHWYQQKPGQAPVLVIYYDSDRPSGIPERFSGSNSGNTATLTISGTQAMDEADYYCQAWDSSTVVFGGGTKLTVL
B6: 2020EP66-D03 scFv (scFv)
scFv: QVQLQQWGAGLLKPSETLSLTCAVYGGSFSGYYWSWIRQPPGKGLEWIGEINHSGSTNYNPSLKSRVTISVDTSKNQFSLKLSSVTAADTAVYYCARGPPLWNYGKGFDYWGQGTLVTVSSGGGGSGKGGSGGGGSQPVLTQPPSASGTPGQRVTISCSGSSSNIGSNYVYWYQQLPRTAPKLLIYRNNQRPSGVPDRFSGSKSGTSASLAISGLRSEDEADYYCAAWDDSLSAWVFGGGTKLTVL
B7: 2020EP60-A12 scFv (scFv)
scFv: EVQLVESGGGVVQPGRSLRLSCAASGFTFSSYGMHWVRQAPGKGLEWVAVISYDGSNKYYADSVKGRFTISRDNSKNTLYLQMNSLRAEDTAVYYCAKGLEYYFDYWGQGTLVTVSSGGGGSGGGGSGGGGSSYELTQPPSLSVSPGQTARITCSGDALPEQYAYWYQQKPGQAPVLVIYKDSERPSGIPERFSGSSSGTTVTLTISGVQAEDEADYYCQAWDSSTVVFGGGTKLTVL
B8: 2020EP66-A07 scFv (scFv)
scFv: EVQLVQSGAEVKKPGSSVKVSCKASGGTFSSYAISWVRQAPGQGLEWMGGIIPIFGTANYAQKFQGRVTITADESTSTAYMELSSLRSEDTAVYYCASGGDGYNYDYYYYGMDVWGQGTTVTVSSGGGGSGGGGSGGGGSSYELTQPPSVSVSPGQTATITCSGEKLGDKYSFWYQQKPGQSPVMVMYQDDQRPSGTPERFSGSNSGNTATLTISGTRATDEADYYCQAWDNSASVFGSGTKLTVL
B9: 2020EP64-G10 scFv (scFv)
scFv: B2 scFv with G137R, Q226H
B10: 2020EP75-E02 scFv (scFv)
scFv: QMQLVQSGAEVKKPGSSVKVSCKASGGTFSSYAISWVRQAPGQGLEWMGGIIPIFGTANYAQKFQGRVTITADKSTSTAYMELSSLRSEDTAVYYCARPRDYRAQYYFDYWGQGTLVTVSSGGGGSGGGGSGGGGSDIVMTQSPSSLSASVGDRVTITCRAGQDIDTSVNWYQLKPGKAPRLLIYASSSLQTGVPSRFSGGGSGAEFTLTISSLQPEDFATYFCQQTFSTSVTFGGGTKVEIK
B11: 2020EP71-E04 scFv (scFv)
scFv: QVQLVQSGGGVVQPGRSLRLSCAASGFTFSSYGMHWVRQAPGKGLEWVAVISYDGSNKYYADSVKGRFTISRDNSKNTLYLQMNSLRAEDTAVYYCAKDRAYYYGYYYYYYGMDVWGQGTTVTVSSGGGGSGGGGSGGGGSQSVLTQPPSVSGAPGQRVTISCTGSSSNIGAGYDVHWYQQLPGTAPKLLIYGNSNRPSGVPDRFSGSKSGTSASLAITGLQAEDEADYYCATWDDSLSGPVFGGGTKVTVL
B12: 2020EP64-C08 scFv (scFv)
scFv: QMQLVQSGAEVKKPGSSVKVSCKASGGTFSSYAISWVRQAPRQGLEWMGRIIPILGIANYAQKFQGRVTITADKSTSTAYMELSSLRSEDTAVYYCASSYGGNQLWGQGTLVTVSSGGGGSGGGGSGGGGSQSVLTQPPSASGTPGQRVTISCSGSDSNIGTNTVNWYQQVPGTAPKVLIYSTHQRPSGVPDRFSASKSGTSASLAISGLQSEDEADYYCSSWDVSLNAWVFGGGTKVTVL
B13: 2020EP54-H01 IgG1 (antibody, V domains shown)
VH: QVQLVESGGGVVQPGRSLRLSCAASGFTFSSYGMHWVRQAPGKGLEWVAVISYDGSNKYYADSVKGRFTISRDNSKNTLYLQMNSLRAEDTAVYYCAKGRGWYLDYWGQGTLVTVSS
VL: NFMLTQPPSVSVSPGQTASITCSGDKLGDKYACWYQQKPGQSPVLVMYEDYKRPSGIPARFSGSNSGNTATLTISRVEGGDEGDYYCQVWDSRGPEVIFGGGTKLTVL
notes: also called 2020EP054-H01; EP054-H01, IgG1

Target: T1, SARS-CoV-2-RBD (328-533)-Fc (SARS-CoV-2)
T1 construct: also called RBD-Fc
Assay: SPR (Biacore T200), RBD captured on anti-human Fc chip, scFv injected

Compared with B1, B2 is 7.1-fold lower in Kd: 31.4 nM for the first, 4.4 nM for the second. The second binds more tightly here.

Going from B3 to B4, the Kd rises from 6.14 nM to 69.5 nM (11-fold).

B5 showed a Kd of 69.4 nM.

Compared with B1, B2 is 2.4-fold lower in koff: 0.00265 s⁻¹ for the first, 0.0011 s⁻¹ for the second.

B3 and B4 are within 1.5-fold of each other in koff: 0.00302 s⁻¹ for the first, 0.00242 s⁻¹ for the second.

With B5 the koff was 0.00191 s⁻¹.

Going from B1 to B2, the kon rises from 84300 M⁻¹ s⁻¹ to 251000 M⁻¹ s⁻¹ (3-fold).

Compared with B3, B4 is 14-fold lower in kon: 491000 M⁻¹ s⁻¹ for the first, 34900 M⁻¹ s⁻¹ for the second.

For B5, the kon was 27500 M⁻¹ s⁻¹.

Target: T2, S1 protein of SARS-CoV-2 (recombinant, construct not stated) (SARS-CoV-2, UniProt P0DTC2 16-685)
Assay: ELISA, S1 coated, scFv titrated, anti-Flag HRP

First: B6
Second: B1
The EC50 of the first is 40-fold lower: 0.514 nM for the first, 20.4 nM for the second. The first is the more potent here.

Compared with B7, B8 is 52-fold lower in EC50: 27.3 nM for the first, 0.525 nM for the second.

Compared with B2, B9 is 1.8-fold higher in EC50: 0.511 nM for the first, 0.936 nM for the second. The first is the more potent here.

Going from B10 to B11, the EC50 rises from 0.225 nM to 5.03 nM (22-fold). The first is the more potent here.

First: B3
Second: B12
The EC50 of the first is 29-fold lower: 1.38 nM for the first, 40.2 nM for the second.

With B5 the EC50 was 5.74 nM.

Target: S protein of SARS-COV-2 (Sino Biologics) (SARS-CoV-2, UniProt P0DTC2 16-1213)
Assay: ELISA, S protein (Sino Biologics) coated, anti-human Fc HRP

Work on B13 yielded an EC50 of 11.5 nM.

Target: S1-Fc (SARS-CoV-2 S1 protein, Fc fusion) (SARS-CoV-2, UniProt P0DTC2 16-685)
Assay: SPR (Biacore T200), S1 captured on anti-human Fc chip, scFv injected

Going from B6 to B1, the Kd rises from 19.5 nM to 52.5 nM (2.7-fold). The first binds more tightly here.

First: B8
Second: B2
The Kd of the first is 3.4-fold lower: 2.3 nM for the first, 7.84 nM for the second. The first binds more tightly here.

Compared with B9, B10 is 2.5-fold lower in Kd: 11.2 nM for the first, 4.46 nM for the second.

Going from B11 to B12, the Kd rises from 37.6 nM to 73.6 nM (2-fold).

Work on B4 yielded a Kd of 91.8 nM.

First: B6
Second: B1
The koff of the first is 2-fold lower: 0.00256 s⁻¹ for the first, 0.0052 s⁻¹ for the second.

B8 and B2 are within 1.5-fold of each other in koff: 0.00142 s⁻¹ for the first, 0.00204 s⁻¹ for the second.

B9 and B10 are within 1.5-fold of each other in koff: 0.00242 s⁻¹ for the first, 0.00174 s⁻¹ for the second.

Compared with B11, B12 is 3.6-fold higher in koff: 0.0019 s⁻¹ for the first, 0.00693 s⁻¹ for the second.

With B4 the koff was 0.00366 s⁻¹.

B6 and B1 are within 1.5-fold of each other in kon: 131000 M⁻¹ s⁻¹ for the first, 99000 M⁻¹ s⁻¹ for the second.

First: B8
Second: B2
The kon of the first is 2.4-fold higher: 614000 M⁻¹ s⁻¹ for the first, 260000 M⁻¹ s⁻¹ for the second.

Compared with B9, B10 is 1.8-fold higher in kon: 215000 M⁻¹ s⁻¹ for the first, 390000 M⁻¹ s⁻¹ for the second.

Going from B11 to B12, the kon rises from 50600 M⁻¹ s⁻¹ to 94100 M⁻¹ s⁻¹ (1.9-fold).

B4 showed a kon of 39900 M⁻¹ s⁻¹.

Target: T3, RBD of SARS-CoV-2 spike protein S1 (recombinant, construct not stated) (SARS-CoV-2, UniProt P0DTC2 328-533)
T3 construct: also called SARS-COV-2, RBD; RBD-AF647
Assay: ELISA, RBD coated, scFv titrated, anti-Flag HRP

B6: no binding (tested: 200 nM (highest concentration tested)).
B8: no binding (tested: 200 nM (highest concentration tested)).
B10: no binding (tested: 200 nM (highest concentration tested)).
B11: no binding (tested: 200 nM (highest concentration tested)).

B1 and B7 are within 1.5-fold of each other in EC50: 5.77 nM for the first, 4.99 nM for the second.

B2 and B9 are within 1.5-fold of each other in EC50: 0.818 nM for the first, 0.663 nM for the second.

First: B3
Second: B12
The EC50 of the first is 13-fold lower: 0.649 nM for the first, 8.73 nM for the second.

First: B4
Second: B5
The EC50 of the first is 30-fold higher: 75.9 nM for the first, 2.52 nM for the second. The second is the more potent here.

Target: T3, RBD of SARS-CoV-2 spike protein S1 …
Assay: ELISA, RBD coated, IgG1 titrated, anti-human Fc HRP

In the case of B13, the EC50 is reported as 0.101 nM.

Target: T2, S1 protein of SARS-CoV-2 (recombinant, …)
Assay: ELISA, S1 coated, IgG1 titrated, anti-human Fc HRP

Work on B13 yielded an EC50 of 0.101 nM.

Target: T4, RBD of SARS-COV (ACRO Biosciences) (SARS-COV, UniProt P59594 306-527)
T4 construct: domain: RBD; also called RBD-SARS; SARS-COV, RBD
Assay: ELISA, SARS-COV RBD coated, IgG titrated, anti-human Fc HRP

B13: no binding (tested: 200 nM (highest concentration tested)).

Target: T2, S1 protein of SARS-CoV-2 (recombinant, …)
Assay: not given

B1 showed an IC50 of 38.4 nM.

Target: T5, S1 protein of SARS-COV (ACRO Biosciences) (SARS-COV, UniProt P59594 14-667)
T5 construct: domain: S1
Assay: ELISA, SARS-COV S1 coated, IgG titrated, anti-human Fc HRP

B13: no binding (tested: 200 nM (highest concentration tested)).
